Assay results reported in patent US20200277385A1 (LABORATOIRE FRANCAIS DU FRACTIONNEMENT ET DES …, published 2020).

How the values were obtained:
[1] = molecular target: T1, human CD303 antigen expressed on cells (human, UniProt Q8WTT0 1-213); experiment: flow cytometry on Fcγ chain-CD303 Jurkat cells
T1 construct: On Fcγ chain-CD303 Jurkat cells, CAL-1 cells, and CAL-1 cells transfected with a CD303 expression vector; also called BDCA-2; BDCA2
T1 sequence: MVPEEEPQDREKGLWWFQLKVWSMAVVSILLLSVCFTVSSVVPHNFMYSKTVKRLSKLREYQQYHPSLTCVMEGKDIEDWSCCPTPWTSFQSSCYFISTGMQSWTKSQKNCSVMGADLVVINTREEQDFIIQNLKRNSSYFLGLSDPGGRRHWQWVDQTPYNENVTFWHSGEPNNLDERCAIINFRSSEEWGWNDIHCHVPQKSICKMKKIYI
Description: (§1) The CD303-expressing cells and the antibodies are prepared in diluent (PBS+1% FCS). 1·10⁵ cells are incubated at 4° C. for 30 minutes with 100 μL of antibody (anti-CD303 or negative control) at various concentrations (0-40 μg/mL, final concentration).
(§2) After washing with the diluent, the antibodies are visualized by addition of a phycoerythrin (PE)-coupled goat anti-mouse IgG F(ab′)₂ fragment (100 μL diluted to 1:100 in the diluent) for 45 minutes at 4° C. The cells are then washed and analyzed by flow cytometry (FC500, Beckman Coulter).

FcγRIIIa (CD16a) [2] = molecular target: T2, FcγRIIIa (CD16a) (UniProt P08637 17-254, limits assumed); experiment: competition with 3G8-PE for CD16 on NK cells, flow cytometry
T2 construct: whole, on cells; also called Fcγ receptor III
T2 sequence (P08637 17-254 limits assumed): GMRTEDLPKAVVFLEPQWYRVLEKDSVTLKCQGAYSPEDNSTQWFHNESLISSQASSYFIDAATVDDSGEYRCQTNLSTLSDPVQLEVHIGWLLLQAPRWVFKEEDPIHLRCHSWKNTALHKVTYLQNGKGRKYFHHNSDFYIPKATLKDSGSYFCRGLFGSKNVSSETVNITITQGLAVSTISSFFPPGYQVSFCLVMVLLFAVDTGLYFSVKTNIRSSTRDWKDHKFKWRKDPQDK

[3] = molecular target: T1, human CD303 antigen expressed on cells; experiment: flow cytometry on CAL-1 cells
Description: as §1, §2

[4] = molecular target: T1, human CD303 antigen expressed on cells; experiment: cell-based or functional assay
[5] = molecular target: T1, human CD303 antigen expressed on cells; experiment: cell-based or functional assay; remark: listed apart in the source
[6] = molecular target: T1, human CD303 antigen expressed on cells; experiment: flow cytometry on CAL-1 cells, 0.1 µg/mL, supernatant
Description: The line used to carry out this technique, CAL-1, is a leukemic cell line of plasmacytoid dendritic cells obtained from a BPDCN patient. The antibodies produced were tested in supernatant, but also in forms purified by affinity chromatography with protein A-sepharose (not elaborated upon herein).
For cell staining, the cells and the antibodies are prediluted with PBS/1% FCS. In a 100 μL reaction volume, 1·10⁵ cells are incubated at 4° C. for 30 minutes with the anti-CD303 antibodies to be tested, at two concentrations: 0.1 μg/mL or 1 μg/mL. This incubation is followed with several washings. The cell/antibody complexes thus formed are then contacted for 30 minutes at 4° C. with the secondary antibody diluted 1:50, an anti-human IgG Fc F(ab′)₂ coupled to a fluorochrome, phycoerythrin. […] Various negative controls are used to eliminate possible nonspecific binding, such as: the cells alone or directly in contact with the secondary antibody, or replacing the antibody tested with an irrelevant chimeric antibody (factor VIII anti-idiotype).

FcγRIIIa (CD16a) [7] = molecular target: T2, FcγRIIIa (CD16a); experiment: cell-based or functional assay
CD303 ectodomain = molecular target: T3, CD303 ectodomain (human, UniProt Q8WTT0 45-213); experiment: ELISA on coated CD303 ectodomain, 5 ng/mL antibody
T3 construct: also called ectodomain of the human CD303 antigen
T3 sequence: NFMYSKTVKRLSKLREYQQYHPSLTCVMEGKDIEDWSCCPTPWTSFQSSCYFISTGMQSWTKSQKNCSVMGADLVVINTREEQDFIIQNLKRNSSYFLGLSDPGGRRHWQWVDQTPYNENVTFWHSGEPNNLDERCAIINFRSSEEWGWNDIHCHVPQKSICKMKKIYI
Description: This technique, which uses a colorimetric approach, makes it possible to detect and visualize antigen-antibody interactions. The principle of ELISA is, first, to coat each well of a MaxiSorp plate with 10 ng of the antigen, in this case the CD303 ectodomain. The latter was purchased from the supplier Mybiosource. Second, the various antibodies produced, contained in the supernatant, are all diluted to the same concentration, and contacted with the antigen to allow them to bind. A third step consists in adding the secondary antibodies, HRP-conjugated anti-human antibody, necessary for amplified detection of the antigen-binding of the anti-CD303 antibodies. Lastly, detection is carried out using a solution containing the substrate for the enzyme (3,3′,5,5′-tetramethylbenzidine, or TMB). The appearance of coloring of the substrate indicates the formation of the antigen-antibody complex. The intensity of this coloring is proportional to the amount of enzyme present and thus to the amount of antibody tested bound to the antigen. The reaction is stopped by adding H₂SO₄ (acid). These colors are read using a spectrophotometer at a wavelength of 450 nm.
A concentration of 5 ng/mL is used to classify the humanized antibodies (FIG. 10).

B1: chimeric antibody 104E10 (antibody, human IgG1, kappa)
heavy: not shown
light: QIVLTQSPAIMSASPGEKVTMTCSASSSVIYMHWFQQKPGTSPKLWIYSTSNLASGVPARFSGSGSGTSYSLTISRMEAEDAATYYCQQRRSYPYTFGGGTKLEIKRTVAAPSVFIFPPSDEQLKSGTASVVCLLNNFYPREAKVQWKVDNALQSGNSQESVTEQDSKDSTYSLSSTLTLSKADYEKHKVYACEVTHQGLSSPVTKSFNRGEC
notes: Produced in YB2/0
- Bmax (MFI) [1]: 23.7 MFI
- EC50 [1]: 6.06 µg/mL
- IC50 (FcγRIIIa (CD16a) [2]): 18.1 µg/mL
- Bmax (MFI) [3]: 29.2 MFI
- EC50 [3]: 1.93 µg/mL
- ADCC EC50, Fcγ chain-CD303 Jurkat target cells with NK cells [4]: 0.00828 µg/mL
- ADCC Emax (% lysis), Fcγ chain-CD303 Jurkat target cells with NK cells [4]: 40.5 % lysis

B2: chimeric antibody 114D11 (antibody, human IgG1, kappa)
heavy: not shown
light: QIVLTQSPAIMSASPGEKVTITCSASSSVFYMHWFQQKPGTSPKLWIYSTSNLASGVPARFSGSGSGTSYSLTISRMEAEDAATYYCQQRRSYPYTFGGGTKLEIKRTVAAPSVFIFPPSDEQLKSGTASVVCLLNNFYPREAKVQWKVDNALQSGNSQESVTEQDSKDSTYSLSSTLTLSKADYEKHKVYACEVTHQGLSSPVTKSFNRGEC
notes: Produced in YB2/0
- Bmax (MFI) [1]: 24.7 MFI
- EC50 [1]: 3.98 µg/mL
- IC50 (FcγRIIIa (CD16a) [2]): 45 µg/mL
- Bmax (MFI) [3]: 30.1 MFI
- EC50 [3]: 1.7 µg/mL
- ADCC EC50, Fcγ chain-CD303 Jurkat target cells with NK cells [4]: 0.00361 µg/mL
- ADCC Emax (% lysis), Fcγ chain-CD303 Jurkat target cells with NK cells [4]: 37.4 % lysis

B3: humanized antibody 122A2H5 (antibody, human IgG1, kappa)
heavy: not shown
light: DIQMTQSTSSLSASLGDRVTITCQASQDISNYLNWYQQKPDGTVKLLIYYTSRLHTGVPSRFSGSGSGTDYSLTISNLDQEDIATYYCQQGNTLPWTFGGGTKLEIKRTVAAPSVFIFPPSDEQLKSGTASVVCLLNNFYPREAKVQWKVDNALQSGNSQESVTEQDSKDSTYSLSSTLTLSKADYEKHKVYACEVTHQGLSSPVTKSFNRGEC
- IC50 for IFN-α secretion from pDCs contained in PBMCs [5]: 0.819 ng/mL

B4: humanized antibody 122A2H10 (antibody, human IgG1, kappa, V domains shown)
VH: QVQLQQSGAEVVKPGASVKISCKGSGYTFTDYSMHWVRQAHAKSLEWIGVISTYYGDSNYNQKFKGKVTMTVDTSSSTAYMELSRLRSDDTAVYYCARNGNFYVMDYWGQGTLVTVSS
VL: DIQMTQSPSSLSASVGDRVTITCQASQDISNYLNWYQQKPDGTVKLLIYYTSRLHTGVPSRFSGSGSGTDYSLTISNLDQEDIATYYCQQGNTLPWTFGGGTKLEIKR
- IC50 for IFN-α secretion from pDCs contained in PBMCs [5]: 0.947 ng/mL

B5: humanized antibody 122A2H14 (antibody, human IgG1, kappa, V domains shown)
VH: QVQLQQSGAEVVKPGASVKISCKGSGYTFTDYSMHWVRQAHAKSLEWIGVISTYYGDSNYNQKFKGKVTMTVDTSSSTAYMELSRLRSDDTAVYYCARNGNFYVMDYWGQGTLVTVSS
VL: DIQMTQSTSSLSASLGDRVTITCQASQDISNYLNWYQQKPDGTVKLLIYYTSNLHTGVPSRFSGSGSGTDYSLTISNLQQEDIATYYCQQGNTLPWTFGGGTKLEIKR
- binding result [6]: binds

B6: humanized antibody 122A2H9 (antibody, human IgG1, kappa)
heavy: not shown
light: DIQMTQSPSSLSASVGDRVTITCQASQDISNYLNWYQQKPDGTVKLLIYYTSRLHTGVPSRFSGSGSGTDYSLTISNLDQEDIATYYCQQGNTLPWTFGGGTKLEIKRTVAAPSVFIFPPSDEQLKSGTASVVCLLNNFYPREAKVQWKVDNALQSGNSQESVTEQDSKDSTYSLSSTLTLSKADYEKHKVYACEVTHQGLSSPVTKSFNRGEC
- IC50 for IFN-α secretion from pDCs contained in PBMCs [5]: 0.911 ng/mL
- IL-2 secretion by CD16 Jurkat cells: 50%, with ch122A2 = 1 (Mean) (FcγRIIIa (CD16a) [7]): 0.73 ratio to ch122A2
- IL-2 secretion by CD16 Jurkat cells: 50%, with ch122A2 = 1 (experiment 2126 16 057) (FcγRIIIa (CD16a) [7]): 0.66 ratio to ch122A2
- IL-2 secretion by CD16 Jurkat cells: 50%, with ch122A2 = 1 (experiment 2126 16 059) (FcγRIIIa (CD16a) [7]): 0.78 ratio to ch122A2
- IL-2 secretion by CD16 Jurkat cells: 50%, with ch122A2 = 1 (experiment 2126 16 066) (FcγRIIIa (CD16a) [7]): 0.74 ratio to ch122A2

B7: humanized antibody 122A2H15 (antibody, human IgG1, kappa, V domains shown)
VH: QVQLQQSGAEVVKPGASVKISCKGSGYTFTDYSMHWVRQAPGQGLEWIGVISTYYGDSNYNQKFKGKVTMTVDKSSSTAYMELSRLTSDDTAVYYCARNGNFYVMDYWGQGTLVTVSS
VL: DIQMTQSTSSLSASLGDRVTITCQASQDISNYLNWYQQKPDGTVKLLIYYTSNLHTGVPSRFSGSGSGTDYSLTISNLQQEDIATYYCQQGNTLPWTFGGGTKLEIKR
- binding result [6]: binds

B8: humanized antibody 122A2H7 (antibody, human IgG1, kappa, V domains shown)
VH: QVQLQQSGAEVVKPGASVKISCKGSGYTFTDYSMHWVRQAPGQGLEWIGVISTYYGDSNYNQKFKGKVTMTVDKSSSTAYMELSRLTSDDTAVYYCARNGNFYVMDYWGQGTLVTVSS
VL: DIQMTQSTSSLSASLGDRVTITCQASQDISNYLNWYQQKPDGTVKLLIYYTSRLHTGVPSRFSGSGSGTDYSLTISNLDQEDIATYYCQQGNTLPWTFGGGTKLEIKR
- IC50 for IFN-α secretion from pDCs contained in PBMCs [5]: 0.865 ng/mL

B9: chimeric antibody 104C12 (antibody, human IgG1, kappa)
heavy: not shown
light: DLQMTQTPSSLSASLGDRVTISCRASQDINNYLSWYQEKPDGTFKLLIYYTSRLHSGVPSRFSGSGSGTDYSLTVRNLEQEDIGTYFCQQGKTLPWTFGGGTKLEIRRTVAAPSVFIFPPSDEQLKSGTASVVCLLNNFYPREAKVQWKVDNALQSGNSQESVTEQDSKDSTYSLSSTLTLSKADYEKHKVYACEVTHQGLSSPVTKSFNRGEC
notes: Produced in YB2/0
- Bmax (MFI) [1]: 27.7 MFI
- EC50 [1]: 0.178 µg/mL
- IC50 (FcγRIIIa (CD16a) [2]): 26.8 µg/mL
- Bmax (MFI) [3]: 29 MFI
- EC50 [3]: 0.345 µg/mL
- ADCC EC50, Fcγ chain-CD303 Jurkat target cells with NK cells [4]: 0.000214 µg/mL
- ADCC Emax (% lysis), Fcγ chain-CD303 Jurkat target cells with NK cells [4]: 41.8 % lysis

B10: humanized antibody 102E9H10 (antibody, human IgG1, kappa, V domains shown)
VH: QIHLVQSGPELKKPGESVKISCKASGYTFTDYSMHWVRQAPGQGLKWMGWINTETGEPTYAQDFKGRFVFSLDTSVSTAYLQINSLKNEDTSTYYCTRNGYYVGYYAMDYWGQGTSVTVSS
VL: QIQLTQSPSFLSASPGERVTITCSASSSVIYIHWFQQKPGTAPKLWIYSTSYLASGVPSRFSGSGSGTSYTLTISRMEAEDFATYYCQQRRSYPFTFGGGTKLEIKR
- CD303 ectodomain-binding capacity relative to chimeric antibody 102E9 (CD303 ectodomain): 80%

B11: humanized antibody 102E9H9 (antibody, human IgG1, kappa, V domains shown)
VH: QIHLVQSGPELKKPGESVKISCKASGYTFTDYSMHWVKQAPGQGLKWMGWINTETGEPTYADDFKGRFVFSLDTSVSTAYLQINSLKNEDTSTYYCTRNGYYVGYYAMDYWGQGTSVTVSS
VL: QIQLTQSPSFLSASPGERVTITCSASSSVIYIHWFQQKPGTAPKLWIYSTSYLASGVPSRFSGSGSGTSYTLTISRMEAEDFATYYCQQRRSYPFTFGGGTKLEIKR
- CD303 ectodomain-binding capacity relative to chimeric antibody 102E9 (CD303 ectodomain): 71%

B12: humanized antibody 102E9H6 (antibody, human IgG1, kappa)
heavy: not shown
light: QIQLTQSPSFLSASPGERVTITCSASSSVIYIHWFQQKPGKAPKLWIYSTSYLASGVPSRFSGSGSGTEYTLTISSMEAEDFATYYCQQRRSYPFTFGGGTKLEIKRTVAAPSVFIFPPSDEQLKSGTASVVCLLNNFYPREAKVQWKVDNALQSGNSQESVTEQDSKDSTYSLSSTLTLSKADYEKHKVYACEVTHQGLSSPVTKSFNRGEC
- CD303 ectodomain-binding capacity relative to chimeric antibody 102E9 (CD303 ectodomain): 73%

B13: humanized antibody 102E9H7 (antibody, human IgG1, kappa)
heavy: not shown
light: QIQLTQSPSFLSASPGERVTITCSASSSVIYIHWFQQKPGKAPKLWIYSTSYLASGVPSRFSGSGSGTEYTLTISSMEAEDFATYYCQQRRSYPFTFGGGTKLEIKRTVAAPSVFIFPPSDEQLKSGTASVVCLLNNFYPREAKVQWKVDNALQSGNSQESVTEQDSKDSTYSLSSTLTLSKADYEKHKVYACEVTHQGLSSPVTKSFNRGEC
- CD303 ectodomain-binding capacity relative to chimeric antibody 102E9 (CD303 ectodomain): 76%
